Data on one molecule can be found in patent US20230406948A1 (APEXIGEN, published 2023).

For experiment [1], the target named is T1, human CD40 on cells (native CD40 on Ramos cells, human B cells, human monocyte-derived dendritic cells); cell … (human, UniProt P25942 21-193).
T1 construct: Endogenous CD40 on human cells; also called native CD40 protein; CD40 positive cells
In words: FACS on live Ramos cells, goat anti-human IgG (H+L) PE. As to the method: In another experiment, the ability of the CD40 antibodies to bind to native CD40 protein was determined by FACS analysis with live Ramos cells. Ramos cells were harvested and blocked with 1.5 ml blocking buffer (0.1% BSA/PBS) for 30 minutes. Antibodies at various concentrations were added to cells and incubated for 1 hour. After washing, 50 ul Goat-anti-human IgG (H+L) PE antibody at 1:1000 dilution in blocking solution was added and incubated for 30 minutes. Cells were then washed with PBS and were re-suspended with […] and analyzed by FACS. The antibodies tested were the 19-21 rabbit anti-CD40 agonist antibody, SGN-40 developed by Seattle Genetics and CP870893 from Pfizer.

Another experiment deals with T2, human CD40 (human, UniProt P25942 21-193).
T2 construct: also called immobilized human CD40
T2 sequence (P25942 21-193 limits assumed): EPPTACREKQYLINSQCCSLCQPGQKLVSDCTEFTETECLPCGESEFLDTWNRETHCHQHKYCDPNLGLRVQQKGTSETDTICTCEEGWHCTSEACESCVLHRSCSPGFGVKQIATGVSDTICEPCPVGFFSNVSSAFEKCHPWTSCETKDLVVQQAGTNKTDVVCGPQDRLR
In words: method not stated.

The target of experiment [2] is T1, human CD40 on cells (native CD40 on …). In words: FACS on Ramos cells, 30 min at 4 C, Alexa 488 goat anti-human IgG. As to the method:
In order to assess the target mediated-internalization of APX005 for evaluating its impact on ADCC activity, Ramos cells were incubated with APX005 for 4 h at 37° C., a temperature permissive for internalization, or at 4° C. for 30 minutes, a temperature at which internalization is minimized. Cells were washed with staining buffer, followed by incubation with Alexa 488 labeled goat anti-human IgG for an additional 30 minutes at 4° C. FACS analysis was performed to examine the level of APX005 on the cell surface.

In experiment [3] the target is T3, fusion protein of rabbit Fc and RANK (UniProt Q9Y6Q6 30-212, limits assumed).
T3 construct: Neither the species nor the order of the parts is stated; not shown: rabbit Fc
T3 sequence (looked up): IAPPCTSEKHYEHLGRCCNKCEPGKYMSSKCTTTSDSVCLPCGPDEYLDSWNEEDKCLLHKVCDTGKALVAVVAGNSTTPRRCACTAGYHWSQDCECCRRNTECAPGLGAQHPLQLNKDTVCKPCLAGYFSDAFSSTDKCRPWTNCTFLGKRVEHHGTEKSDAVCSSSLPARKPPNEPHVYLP
The experiment can be described thus: direct ELISA, 1 ug/ml rabbit Fc-RANK fusion coated, goat anti-human IgG-HRP. As for the experimental part:
(§1) Binding selectivity of APX005 was assessed by direct ELISA to a panel of TNFR family proteins. A total of 1 μg/ml of fusion protein of rabbit Fc and CD40, RANK, TweakR, OX40, DR5 and 4-1 BB were coated on ELISA plates. Bound APX005 was detected using goat anti-human HRP-conjugated IgG.

The target of experiment [4] is T4, fusion protein of rabbit Fc and DR5 (UniProt O14763 56-182, limits assumed).
T4 construct: Neither the species nor the order of the parts is stated; not shown: rabbit Fc
T4 sequence (O14763 56-182 limits assumed): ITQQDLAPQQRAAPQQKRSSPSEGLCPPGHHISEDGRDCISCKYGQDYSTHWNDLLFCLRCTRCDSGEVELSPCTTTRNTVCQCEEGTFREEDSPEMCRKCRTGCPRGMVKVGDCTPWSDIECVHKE
In words: direct ELISA, 1 ug/ml rabbit Fc-DR5 fusion coated, goat anti-human IgG-HRP. As to the method:
as §1
(In general: An ELISA detects its analyte on a solid surface through an enzyme-linked reagent.)

The target in experiment [5] is T5, fusion protein of rabbit Fc and OX40 (UniProt P43489 29-216).
T5 construct: Neither the species nor the order of the parts is stated; not shown: rabbit Fc
T5 sequence (looked up): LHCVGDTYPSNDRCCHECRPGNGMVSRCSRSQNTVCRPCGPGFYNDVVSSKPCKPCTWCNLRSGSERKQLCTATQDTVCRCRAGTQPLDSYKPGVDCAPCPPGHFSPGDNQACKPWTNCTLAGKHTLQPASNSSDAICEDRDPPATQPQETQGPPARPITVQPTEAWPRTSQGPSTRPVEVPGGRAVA
The experiment can be described thus: direct ELISA, 1 ug/ml rabbit Fc-OX40 fusion coated, goat anti-human IgG-HRP. As to the method:
as §1

The target of experiment [6] is T6, fusion protein of rabbit Fc and 4-1 BB (UniProt Q07011 24-186).
T6 construct: Neither the species nor the order of the parts is stated; not shown: rabbit Fc
T6 sequence (Q07011 24-186): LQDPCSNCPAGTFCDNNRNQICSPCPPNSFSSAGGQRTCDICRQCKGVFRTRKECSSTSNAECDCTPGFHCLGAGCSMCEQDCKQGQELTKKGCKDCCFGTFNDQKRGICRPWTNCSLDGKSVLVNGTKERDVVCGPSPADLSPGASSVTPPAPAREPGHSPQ
In words: direct ELISA, 1 ug/ml rabbit Fc-4-1BB fusion coated, goat anti-human IgG-HRP. As to the method:
as §1

The target in a further experiment is T7, CD40-Fc protein (Homo sapiens (Human), UniProt P25942 21-193).
T7 construct: not shown: Fc
T7 sequence (P25942 21-193 limits assumed): as the sequence (P25942 21-193 limits assumed) above
In words: ELISA, plates coated with CD40-Fc protein, OD405nm. An excerpt: In order to assess the ability of the APX005 […] mutant to bind to CD40, APX005 S267E heavy chain and light chain plasmids were purified from transformed bacteria and transfected into 293-6E cell. Four days after transfection, antibody-containing culture supernatants were collected and tested for binding to CD40 using ELISA (ELISA plates coated with CD40-Fc protein).

T1 sequence (P25942 21-193): as the sequence (P25942 21-193 limits assumed) above

B1: APX005, humanized version of the R-8 rabbit anti-CD40 antibody (antibody, IgG1, V domains shown)
VH: QVQLVESGGGVVQPGRSLRLSCAASGFSFSSTYVCWVRQAPGKGLEWIACIYTGDGTNYSASWAKGRFTISKDSSKNTVYLQMNSLRAEDTAVYFCARPDITYGFAINFWGPGTLVTVSS
VL: DIQMTQSPSSLSASVGDRVTIKCQASQSISSRLAWYQQKPGKPPKLLIYRASTLASGVPSRFSGSGSGTDFTLTISSLQPEDVATYYCQCTGYGISWPIGGGTKVEIK
notes: also called humanized R-8; APX005 wild type
In the case of B1, the EC50 (as a rule, the concentration needed to bring the measured effect to its halfway point) in experiment [1] came out at 0.023 µg/mL; with CD40-Fc protein, 0.0563 µg/mL. Further, binding in the experiment with human CD40 was characterised by a dissociation constant (Kd) of 960 pM. Besides, in experiment [2], the EC50 (read off the curve) (usually the midpoint of the concentration-response curve) is about 0.05 µg/mL. The binding result in experiment [3], in experiment [4], in experiment [5] and in experiment [6] was “no binding” throughout.
